Assay results reported in patent US20030166873A1 (Genentech, published 2003).

B2: VH1.4 gD fusion protein (herpes glycoprotein D sequence fused to the putative mature sequence of VRP, plasmid pRK.vh1.4.5) (ligand)
chain: KYALADASLKMADPNRFRGKDLPVLDQLLEGGAAHYALLPGPREAPAAAAAFESGLDLSDAEPDAGEATAYASKDLEEQLRSVSSVDELMTVLYPEYWKMYKCQLRKGGWQHNREQANLNSRTEETIKFAAAHTNTEILKSIDNEWRKTQCMPREVCIDVGKEFGVATNTFFKPPCVSVYRCGGCCNSEGLQCMNTSTSYLSKTLFEITVPLSQGPKPVTISFANHTSCRCMSKLDVYRQVHSIIRRSLPATLPQCQAANKTCPTNYMWNNHICRCLAQEDFMFSSDAGDDSTDGFHDICGPNKELDEETCQCVCRAGLRPASCGPHKELDRNSCQCVCKNKLFPSQCGANREFDENTCQCVCKRTCPRNQPLNPGKCACECTESPQKCLLKGKKFHHQTCSCYRRPCTNRQKACEPGFSYSEEVCRCVPSYWKRPQMS
notes: also called purified VRP; gD-VRP
B6: Flt4/IgG (extracellular domain of the Flt4 receptor, amino acids 1-775, spliced to the Fc region of a human IgG heavy chain) (Fc fusion, UniProt P35916 25-775, looked up)
chain: YSMTPPTLNITEESHVIDTGDSLSISCRGQHPLEWAWPGAQEAPATGDKDSEDTGVVRDCEGTDARPYCKVLLLHEVHANDTGSYVCYYKYIKARIEGTTAASSYVFVRDFEQPFINKPDTLLVNRKDAMWVPCLVSIPGLNVTLRSQSSVLWPDGQEVVWDDRRGMLVSTPLLHDALYLQCETTWGDQDFLSNPFLVHITGNELYDIQLLPRKSLELLVGEKLVLNCTVWAEFNSGVTFDWDYPGKQAERGKWVPERRSQQTHTELSSILTIHNVSQHDLGSYVCKANNGIQRFRESTEVIVHENPFISVEWLKGPILEATAGDELVKLPVKLAAYPPPEFQWYKDGKALSGRHSPHALVLKEVTEASTGTYTLALWNSAAGLRRNISLELVVNVPPQIHEKEASSPSIYSRHSRQALTCTAYGVPLPLSIQWHWRPWTPCKMFAQRSLRRRQQQDLMPQCRDWRAVTTQDAVNPIESLDTWTEFVEGKNKTVSKLVIQNANVSAMYKCVVSNKVGQDERLIYFYVTTIPDGFTIESKPSEELLEGQPVLLSCQADSYKYEHLRWYRLNLSTLHDAHGNPLLLDCKNVHLFATPLAASLEEVAPGARHATLSLSIPRVAPEHEGHYVCEVQDRRSHDKHCHKKYLSVQALEAPRLTQNLTDLLVNVSDSLEMQCLVAGAHAPSIVWYKDERLLEEKSGVDLADSNQKLSIQRVREEDAGRYLCSVCNAKGCVNSSASVAVEGSEDKGSME
modifications: 125I-iodinated where used as the labeled form (Example 6)
notes: range 25-775; also called Flt4 receptor-IgG fusion; ^125I-Flt4/IgG; not shown: Fc region (CH2CH3, plasmid pBSSK-Fc) of a human IgG heavy chain

How the values were obtained:
[1] = biological target: B6; test: receptor IgG / protein A precipitation of 35S-labeled COS7 conditioned medium
[2] = biological target: B6; test: ^125I-Flt4/IgG binding to gD-VRP captured on 5B6 glass beads, filtration and counting
[3] = biological target: B6; test: binding of labeled VEGF to receptor IgG
[4] = biological target: B6; test: receptor IgG / protein A precipitation of 35S-labeled conditioned medium
Flk1/IgG = biological target: T1, Flk1/IgG (UniProt P35968 20-764, limits assumed); test: as above
T1 construct: Construct known only by citation

[5] = biological target: putative membrane-bound VRP (putative membrane-bound ligand) on human glioma cell line G61; test: FACS, 70 nM receptor IgG on G61 cells, compared with Rse/IgG
[6] = biological target: B2; test: competition of ^125I-Flt4/IgG binding to gD-VRP on 5B6 beads by increasing unlabeled Flt4/IgG

T1 sequence (P35968 20-764 limits assumed): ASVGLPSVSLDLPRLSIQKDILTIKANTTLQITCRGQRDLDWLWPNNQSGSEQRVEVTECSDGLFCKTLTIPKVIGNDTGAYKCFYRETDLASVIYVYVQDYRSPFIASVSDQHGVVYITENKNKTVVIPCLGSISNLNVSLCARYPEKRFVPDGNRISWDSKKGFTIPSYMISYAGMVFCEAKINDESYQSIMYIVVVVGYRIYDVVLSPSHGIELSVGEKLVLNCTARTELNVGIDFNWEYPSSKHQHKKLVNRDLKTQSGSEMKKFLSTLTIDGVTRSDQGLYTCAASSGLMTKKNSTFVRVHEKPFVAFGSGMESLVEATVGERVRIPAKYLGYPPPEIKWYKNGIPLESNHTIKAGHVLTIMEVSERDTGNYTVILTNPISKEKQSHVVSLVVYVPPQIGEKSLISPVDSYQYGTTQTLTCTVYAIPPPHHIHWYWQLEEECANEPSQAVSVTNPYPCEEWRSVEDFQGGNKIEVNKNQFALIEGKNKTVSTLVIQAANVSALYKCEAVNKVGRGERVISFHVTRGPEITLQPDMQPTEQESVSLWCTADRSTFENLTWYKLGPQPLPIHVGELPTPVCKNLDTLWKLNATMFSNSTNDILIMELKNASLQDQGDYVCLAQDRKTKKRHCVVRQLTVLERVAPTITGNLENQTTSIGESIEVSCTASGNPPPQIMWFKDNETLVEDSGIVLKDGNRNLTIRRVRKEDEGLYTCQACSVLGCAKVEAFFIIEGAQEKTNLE

B1: human VEGF-related protein (VRP), expressed from cDNA clone VH1.4 (plasmid pRK.vh1.4.2) (ligand)
chain: GPREAPAAAAAFESGLDLSDAEPDAGEATAYASKDLEEQLRSVSSVDELMTVLYPEYWKMYKCQLRKGGWQHNREQANLNSRTEETIKFAAAHTNTEILKSIDNEWRKTQCMPREVCIDVGKEFGVATNTFFKPPCVSVYRCGGCCNSEGLQCMNTSTSYLSKTLFEITVPLSQGPKPVTISFANHTSCRCMSKLDVYRQVHSIIRRSLPATLPQCQAANKTCPTNYMWNNHICRCLAQEDFMFSSDAGDDSTDGFHDICGPNKELDEETCQCVCRAGLRPASCGPHKELDRNSCQCVCKNKLFPSQCGANREFDENTCQCVCKRTCPRNQPLNPGKCACECTESPQKCLLKGKKFHHQTCSCYRRPCTNRQKACEPGFSYSEEVCRCVPSYWKRPQMS
modifications: 35S-labeled amino acids in Example 4
notes: The cleavage site after amino acid 20 is predicted ('most likely'; cleavage after 15 or 16 is not excluded); Flt4/IgG precipitated bands of 53 kDa and 33 kDa, so the secreted protein may be further processed
- binding result [1]: binds

Binder: B2
- binding result [2]: binds

B3: Labeled VEGF (ligand, UniProt P15692-4 27-191, looked up)
chain: APMAEGGGQNHHEVVKFMDVYQRSYCHPIETLVDIFQEYPDEIEYIFKPSCVPLMRCGGCCNDEGLECVPTEESNITMQIMRIKPHQGQHIGEMSFLQHNKCECRPKKDRARQENPCGPCSERRKHLFVQDPQTCKCSCKNTDSRCKARQLELNERTCRCDKPRR
modifications: labeled (label not stated)
- binding result [3]: no binding

B4: VEGF165 (expression plasmid of Houck et al.) (ligand, UniProt P15692-4 27-191, looked up)
chain: APMAEGGGQNHHEVVKFMDVYQRSYCHPIETLVDIFQEYPDEIEYIFKPSCVPLMRCGGCCNDEGLECVPTEESNITMQIMRIKPHQGQHIGEMSFLQHNKCECRPKKDRARQENPCGPCSERRKHLFVQDPQTCKCSCKNTDSRCKARQLELNERTCRCDKPRR
modifications: 35S-labeled amino acids in Example 4
notes: The background calls VEGF a homodimer
- binding result [4]: no binding (tested: 3 µg of receptor IgG)

B5: PlGF152 (expression plasmid of Park et al.) (ligand, UniProt P49763-3 19-170, looked up)
chain: LPAVPPQQWALSAGNGSSEVEVVPFQEVWGRSYCRALERLVDVVSEYPSEVEHMFSPSCVSLLRCTGCCGDENLHCVPVETANVTMQLLKIRSGDRPSYVELTFSQHVRCECRPLREKMKPERRRPKGRGKRRREKQRPTDCHLCGDAVPRR
modifications: 35S-labeled amino acids
notes: also called PIGF; placental growth factor
- binding result [4]: no binding (tested: 3 µg of receptor IgG)
- binding result (Flk1/IgG): no binding (tested: 3 µg of receptor IgG)

Binder: B6
- shift in peak fluorescence intensity [5]: ~10 fold
- EC50 [6]: ~0.7 nM
